The values below come from patent publication US5792629A, “Isolated DNA encoding novel protease inhibitory polypeptide” (Mochida Pharmaceutical Co., Ltd., priority 1990, dated 1998).

Test [1] deals with T1, human plasma kallikrein (Homo sapiens, UniProt P03952).
T1 construct: purchased Sigma Chemical Co
Kind of test: Human plasma kallikrein-inhibiting activity, substrate S-2302. Format: biochemical. To be noted: for human plasma kallikrein-inhibiting activity: purified sample, various concentrations, remaining activity vs buffer control (FIG. 17A-C). Here is the method:
The purified sample obtained in Example 1-(5) was dissolved in 100 μl of distilled water. Concentration of this solution was determined based on its bovine trypsin-inhibiting activity using the aforementioned UTI as a standard. The solution was then diluted to various concentration levels with 0.1% BSA/150 mM NaCl/50 mM Tris-HCl buffer (pH 8.3) for use in the activity measurement. The UTI was also diluted in the same manner. Using a synthetic compound S-2302 (Daiichi Pure Chemicals Co., Ltd.) as a substrate, human plasma kallikrein-inhibiting activities of the diluted test samples and the positive control were measured in accordance with the method of Ohno et al. (Ohno,H. et al., Thromb. Res., vol.19, pp.579-588, 1980) as follows.
0.26 U/ml solution of human plasma kallikrein (Sigma Chemical Co.) was diluted with 0.1% BSA/150 mM NaCl/50 mM Tris-HCl buffer (pH 8.3) to prepare 0.08 U/ml of plasma kallikrein solution. 4 mM solution of S-2302 was prepared by dissolving it in distilled water and the solution was further diluted with 0.1% BSA/150 mM NaCl/50 mM Tris-HCl buffer (pH 8.3) to prepare 2 mM solution of S-2302.
Next, 25 μl of the test sample or positive control was mixed with 75 μl of 0.1% BSA/150 mM NaCl/50 mM Tris-HCl buffer (pH 8.3) and 50 μl of the plasma kallikrein solution. After incubation at 37° C. for 10 minutes, 50 μl of the S-2302 solution was added to the mixture to start the reaction. The reaction was carried out at 37° C. for 8 minutes and then stopped by adding 25 μl of 50% acetic acid solution to the reaction mixture. Thereafter, absorbance at 405 nm was measured using a spectrophotometer.
In this instance, in order to eliminate absorbance of various solutions in the reaction mixture a blank solution was prepared by mixing 50 μl of the plasma kallikrein solution with 25 μl of 50% acetic acid and then with 25 μl of each test sample or the positive control, 75 μl of 0.1% BSA/150 mM NaCl/50 mM Tris-HCl buffer (pH 8.3) and with 50 μl of the S-2302 solution.
In this figure, human plasma kallikrein remaining activity was expressed by percentage based on the absorbance of a control reaction mixture in which 25 μl of 0.1% BSA/150 mM NaCl/50 mM Tris-HCl buffer (pH 8.3) was used instead of the test sample or the positive control.

Test [2] concerns the target T2, Human trypsin (Homo sapiens, UniProt P07477).
T2 construct: purchased Calbiochem
Kind of test: Human trypsin-inhibiting activity, substrate S-2444. The note with it: purified sample, various concentrations; remaining activity vs buffer control (FIG. 14A-C). Format: biochemical. Here is the method: The purified sample obtained in Example 1-(5) was dissolved in 100 μl of distilled water. Concentration of this solution was determined based on its bovine trypsin-inhibiting activity using the aforementioned UTI as a standard. The solution was then diluted to various concentration levels with 0.1% BSA/0.2M triethanolamine-HCl buffer (pH 7.8) for the activity measurement. The aforementioned UTI was also diluted in the same manner.
Using the aforementioned synthetic compound S-2444 as a substrate, human trypsin-inhibiting activities of the diluted test samples and the positive control were measured in accordance with the method of Kassell (Kassell B., Methods in Enzymol., vol 19, pp.84-852, 1970) as follows.
Human trypsin (Calbiochem) was dissolved in 0.001M HCl to a concentration of 1,000 SU/ml and the solution was further diluted with 0.1% BSA/0.2M triethanolamine-HCl buffer (pH 7.8) to prepare 1.25 SU/ml of trypsin solution. 2 mM solution of S-2444 was prepared by dissolving it in distilled water.
Next, 100 μl of the test sample or positive control was mixed with 100 μl of the trypsin solution. After incubation at 37° C. for 10 minutes, 50 μl of the S-2444 solution was added to the mixture to start the reaction. The reaction was carried out at 37° C. for 20 minutes and then stopped by adding 50 μl of 50% acetic acid solution to the reaction mixture. Thereafter, absorbance at 405 nm was measured using a spectrophotometer.
In this instance, in order to eliminate absorbance of various solutions in the reaction mixture, a blank solution was prepared by mixing 100 μl of the trypsin solution with 50 μl of 50% acetic acid and then with 100 μl of each test sample or the positive control and with 50 μl of the S-2444 solution.
In this figure, human trypsin remaining activity was expressed by percentage based on the absorbance of a control reaction mixture in which 100 μl of 0.1% BSA/0.2M triethanolamine-HCl buffer (pH 7.8) was used instead of the test sample or the positive control.

T1 sequence (P03952 20-638): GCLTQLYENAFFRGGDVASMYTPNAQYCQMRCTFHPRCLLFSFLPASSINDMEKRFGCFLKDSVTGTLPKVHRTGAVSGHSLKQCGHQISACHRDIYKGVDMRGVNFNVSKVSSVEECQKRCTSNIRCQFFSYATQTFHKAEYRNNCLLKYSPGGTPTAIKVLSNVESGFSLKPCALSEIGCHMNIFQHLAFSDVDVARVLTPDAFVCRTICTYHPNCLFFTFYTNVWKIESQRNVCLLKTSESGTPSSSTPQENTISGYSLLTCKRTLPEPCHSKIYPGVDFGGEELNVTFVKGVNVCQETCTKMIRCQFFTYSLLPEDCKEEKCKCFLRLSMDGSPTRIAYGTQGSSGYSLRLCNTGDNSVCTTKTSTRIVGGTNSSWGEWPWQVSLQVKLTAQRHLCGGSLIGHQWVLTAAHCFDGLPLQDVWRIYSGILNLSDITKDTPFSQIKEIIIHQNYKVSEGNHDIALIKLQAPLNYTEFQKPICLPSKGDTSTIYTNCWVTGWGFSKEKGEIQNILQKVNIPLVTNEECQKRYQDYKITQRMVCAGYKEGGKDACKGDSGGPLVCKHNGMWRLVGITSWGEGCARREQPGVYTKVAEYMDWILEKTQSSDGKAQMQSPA

As for “CC51: polypeptide defined by the amino acid sequence of formula 1, purified from culture supernatant of E. coli JE5505 (pM560) (CNLPIVRGPCRAFIQLWAFDAVKGKCVLFPYGGCQGNGNKFYSEKECREYC)”, in test [1], the “human plasma kallikrein-inhibiting activity” value is reported as “activity was found”. In test [2], the human trypsin-inhibiting activity result is recorded as “activity was found”.

B1: TN70: polypeptide defined by the amino acid sequence of formula 3, purified from culture supernatant of E. coli JE5505 (pM552) (protein)
chain: TVAACNLPIVRGPCRAFIQLWAFDAVKGKCVLFPYGGCQGNGNKFYSEKECREYCGVPGDGDEELLRFSN
On to B1, for which the “human plasma kallikrein-inhibiting activity” value in test [1] is recorded as “activity was found”. Moreover, the human trypsin-inhibiting activity entry in test [2] is listed as “activity was found”.

B2: TL66: polypeptide defined by formula 8; known enzyme-digested fragment of urinary trypsin inhibitor, made in E. coli JE5505 (pM551) (protein)
chain: TVAACNLPIVRGPCRAFIQLWAFDAVKGKCVLFPYGGCQGNGNKFYSEKECREYCGVPGDGDEELL
Take B2: the “human plasma kallikrein-inhibiting activity” value in test [1] is reported as “activity was found”. Besides, in test [2], the human trypsin-inhibiting activity entry is given as “activity was found”.

B3: UTI: urinary trypsin inhibitor purified from human urine (Mochida Pharmaceutical), used as positive control (protein)
chain: AVLPQEEEGSGGGQLVTEVTKKEDSCQLGYSAGPCMGMTSRYFYNGTSMACETFQYGGCMGNGNNFVTEKECLQTCRTVAACNLPIVRGPCRAFIQLWAFDAVKGKCVLFPYGGCQGNGNKFYSEKECREYCGVPGDGDEELLRFSN
modifications: glycoprotein (sugar moieties, as the filing says in general of UTI)
Regarding B3, the plasma kallikrein-inhibiting activity result in test [1] (experiments of the inventors, stated in the background) is “no plasma kallikrein-inhibiting activity”. The “human plasma kallikrein-inhibiting activity” value in test [1] is on record as “activity was not found”. In test [2], the human trypsin-inhibiting activity entry is “activity was found”.
